Assay results reported in publication PMC5931534, “Non-canonical activation of DAPK2 by AMPK constitutes a new pathway linking metabolic stress to autophagy” (Nature Communications, 2018).

Target: calmodulin (CaM) (UniProt P62157 1-149)
Experiment: cell-based or functional assay

B1: FLAG-DAPK2 WT (enzyme)
chain: MFQASMRSPNMEPFKQQKVEDFYDIGEELGSGQFAIVKKCREKSTGLEYAAKFIKKRQSRASRRGVSREEIEREVSILRQVLHHNVITLHDVYENRTDVVLILELVSGGELFDFLAQKESLSEEEATSFIKQILDGVNYLHTKKIAHFDLKPENIMLLDKNIPIPHIKLIDFGLAHEIEDGVEFKNIFGTPEFVAPEIVNYEPLGLEADMWSIGVITYILLSGASPFLGDTKQETLANITAVSYDFDEEFFSQTSELAKDFIRKLLVKETRKRLTIQEALRHPWITPVDNQQAMVRRESVVNLENFRKQYVRRRWKLSFSIVSLCNHLTRSLMKKVHLRPDEDLRNCESDTEEDIARRKALHPRRRSSTS
fold induction of the catalytic activity (MLC phosphorylation, in vitro kinase assay) upon addition of Ca2+/CaM against EGTA: 5.7 fold
